Reference: patent US6946588B2, “Nucleic acid encoding a modified threonine deaminase and methods of use” (Monsanto Technology LLC, priority 1996, dated 2005)
Positions count from the first letter of the chain named. Numbers in names are those of the source. Like-named read-outs stand apart in the source and are kept apart here.

B1: BktB β-ketothiolase (Cupriavidus necator H16) (protein)
chain: TREVVVVSGVRTAIGTFGGSLKDVAPAELGALVVREALARAQVSGDDVGHVVFGNVIQTEPRDMYLGRVAAVNGGVTINAPALTVNRLCGSGLQAIVSAAQTILLGDTDVAIGGGAESMSRAPYLAPAARWGARMGDAGLVDMMLGALHDPFHRIHMGVTAENVAKEYDISRAQQDEAALESHRRASAAIKAGYFKDQIVPVVSKGRKGDVTFDTDEHVRHDATIDDMTKLRPVFVKENGTVTAGNASGLNDAAAAVVMMERAEAERRGLKPLARLVSYGHAGVDPKAMGIGPVPATKIALERAGLQVSDLDVIEANEAFAAQACAVTKALGLDPAKVNPNGSGISLGHPIGATGALITVKALHELNRVQGRYALVTMCIGGGQGIAAIFERI
B2: E. coli wild-type: wild-type E. coli biosynthetic threonine deaminase encoded by the ilvA gene (SEQ ID NO:1) (protein, listed as Escherichia coli)
chain: MADSQPLSGAPEGAEYLRAVLRAPVYEAAQVTPLQKMEKLSSRLDNVILVKREDRQPVHSFKLRGAYAMMAGLTEEQKAHGVITASAGNHAQGVAFSSARLGVKALIVMPTATADIKVDRLRGFGGEVLLHGANFDEAKRKAIELSQQQGFTWVPPFDHPMVIAGQGTLALELLQQDAHLDRVFVPVGGGGLAACVAVLIKQLMPQIKVIAVEAEDSACLKAALDAGHPVDLPRVGLFAEGVAVKRIGDETFRLCQEYLDDIITVDSDAICAAMKDLFEDVRAVAEPSGALALAGMKKYIALHNIRGERLAHILSGANVNFHGLRYVSERCELVEQREALLAVTIPEEKGSFLKFCQLLGGRSVTEFNYRFADAKNACIFVGVRLSRGLEERKEILQMLNDGGYSVVDLSDDEMAKLHVRYMVGGRPSHPLQERLYSFEFPESPGALLRFLNTLGTYWNISLFHYRSHGTDYGRVLAAFELGDHEPDFETRLNELGYDCHDETNNPAFRFFLAG
B3: E. coli L481F (protein)
chain: B2 chain with R120A, L121V, R140A, C195G, V334G, L481F

Experiments:
[1] = substrate: CC(C)(COP(=O)(O)OP(=O)(O)OC[C@H]1O[C@@H](n2cnc3c(N)ncnc32)[C@H](O)[C@@H]1OP(=O)(O)O)[C@@H](O)C(=O)NCCC(=O)NCCS; experiment: purified protein, by the assay type; conditions: other: thiolysis, 25° C., β-ketocaproyl-CoA fixed at 60 μM
Description: To enhance further our understanding of the kinetic characteristics of BktB β-ketothiolase, a thorough kinetic analysis of the enzyme's thiolysis activity was conducted using purified protein. The assay to determine the kinetic parameters Km and Vmax for βketobutyryl-CoA (C4), β-ketovaleryl-CoA (C5), and β-ketocaproyl-CoA (C6), was performed at 25° C. by the in situ generation of the β-keto compounds from their corresponding trans-2,3-enoyl-CoAs essentially as described by Haywood et al. (1988). Utilization of variable substrate concentrations permitted the determination of the descriptive kinetic parameters of the β-ketothiolase.
The assay mixture (1 ml final volume) contained 150 mM EPPS, pH 8.0, 50 mM MgCl2, 1.5 mM pyruvate, 0.4 mM NAD+, and a coupling enzyme cocktail of three units crotonase, five units β-hydroxyacyl-CoA dehydrogenase, and 10 units lactic dehydrogenase. The enoyl-CoA was added to this mixture and the absorbance at 304 nm was monitored until it reached a plateau (typically about 5 min). CoA was added to this mixture, followed by BktB β-ketothiolase to initiate the reaction. The decrease in absorbance at 304 nm due to the thiolysis of the β-ketoacyl-CoA was utilized as a direct measure of activity. […] Reaction rates were calculated in the steady-state within the first minute following initiation. […]

[2] = test system: E. coli biosynthetic threonine deaminase; conditions: for Threonine Deaminase Specific Activity / % activity relative to the results with 0 mM isoleucine: 10 mM threonine; for Hill Coefficient (n) / Km: fit to Hill equation; for Km: read-out: Km Threonine
Description: Kinetic analysis of the wild-type and mutant threonine deaminases was performed by determining threonine turnover catalyzed by these threonine deaminases as assayed by the method of Burns (1971). Specifically, α-keto-butyrate production was monitored by coupling to L-lactic dehydrogenase (LDH)-catalyzed reduction of the α-ketoacid in the presence of NADH to form (L)-2-hydroxybutyrate and NAD+. The disappearance of NADH absorbance at 340 nm provides a measure of the threonine deaminase activity. Final reaction conditions were 100 mM KPi, pH 7.8, 0.20 mM NADH, 10 units/mL LDH (defined as LDH turnover of α-ketobutyrate, not pyruvate), and variable threonine. R. Rubrum was grown according to Brandl et al., 1989. The growth and induction of E. coli cells overexpressing the mutant and wild-type biosynthetic threonine deaminases is described above. Cell extracts of R. Rubrum and E. coli were prepared by sonicating pelleted cells (≈0.5 g from 100 ml of culture) in 2 ml of 100 mM KPi, pH 7.0, containing 5% (v/v) glycerol. After centrifugation to remove cellular debris, protein concentrations were determined by the method of Bradford (1976), and threonine deaminase activity was measured.
The kinetic parameters Km and Vmax, and the level of positive cooperativity, i.e., the deviation from normal saturation kinetics where at low substrate concentration the substrate turnover rate is less than a non-cooperative system, were determined. These values were found by fitting the rate data to the Hill equation (Equation 1), which incorporates the coefficient n into the normal Michaelis-Menten equation (n=1 for a non-cooperative system).
In addition to the kinetic parameters, the degree of inhibition of threonine deaminase by isoleucine was also measured at fixed levels of threonine.

soybean callus = experiment: Expression and activity of E. coli IlvA in stably transformed soybean callus; type: cell-based; conditions: soybean calli 518-4, 518-15, 518-16, 518-17 transformed with pMON25668
Description: As shown above, the E. coli IlvA proteins can be functionally expressed in a plant transient expression system. In order to test the expression of a biosynthetic threonine deaminase in a stably transformed plant tissue, non-differentiating callus derived from soybean hypocotyl tissue was transformed with a plasmid containing the E. coli wild-type ilvA threonine deaminase gene using Agrobacterium tumefaciens ABI (Koncz and Schell, 1986).
Soybean callus tissue was transformed with binary Ti plasmid pMON25668 (FIG. 17). Plasmid pMON25668 contains the e35S-expressed, plastid-targeted (ARABSSU1A) E. coli wild-type ilvA threonine deaminase gene, the e35S-expressed, plastid-targeted (ARABSSU1A) A. eutrophus phbA (β-ketothiolase) gene, and the e35s-expressed neomycin phosphotransferase type II (NptII) gene for kanamycin resistance. […] contains two border sequences for T-DNA transfer into the plant chromosome. The right border sequence is the only border required for T-DNA transfer into the plant; however, including the left border sequence terminates T-DNA integration at that point, thereby limiting the unnecessary incorporation of “extra” DNA sequences into the plant chromosome. pMON25668 also contains the minimun sequence of ori-322 for replication and maintenance in E. coli as well as ori-V of the broad host origin RK2 for replication in Agrobacterium. […]

E. coli DH5α cells = experiment: Intracellular α-ketobutyrate in transformed E. coli DH5α (HPLC of dinitrophenylhydrazine derivative); type: cell-based; conditions: for [α-ketobutyrate]: 1 ml extract from approximately 50 mg cells, M9 + 0.2% gluconate + 25 mM L-threonine; for α-ketobutyrate level relative to cells containing no overexpressed threonine deaminase: transformed E. coli DH5α
Description: (§1) Transformed cells were grown on M9 minimal salts plus 0.2% gluconate and 25 mM L-threonine. At early log phase, the cells were induced with IPTG to induce expression of all four enzymes (i.e., PhbA, PhbB, PhbC, and IlvA or IlvA466). […] The level of α-ketobutyrate was determined by reverse-phase HPLC isolation of the dinitrophenylhydrazine derivative of the α-ketoacid according to Qureshi et al., (1982). Quantitation was based on peak integration comparisons to a standard curve.

threonine deaminase = experiment: Threonine deaminase activity in extracts of transformed E. coli DH5α (in vivo analysis of cloned ilvA genes); type: biochemical; conditions: 0 mM isoleucine, 10 mM threonine
Description: E. coli DH5α cells were transformed with pJM9238 (Kidwell et al., 1995) containing the PHB operon of A. eutrophus by CaCl2/heat shock treatment The PHB operon was under the inducible control of the ptac promoter. E. coli containing pJM9236 were used as a background control with respect to threonine deaminase activity.
E. coli DH5α cells were also cotransformed by CaCl2/heat shock treatment with pJM9238 and pMON25660 (FIG. 5) containing the wild-type E. coli threonine deaminase, under ptrc inducible control.
In a third experiment, E. coli DH5α cells were cotransformed with pJM9238 and pMON25683 (FIG. 11) containing the mutant E. coli ilvA466 (L481F) threonine deaminase, under ptrc inducible control.
as §1

| Molecule | Km [1] [mM] | Threonine Deaminase Specific Activity ([2]; 0 mM isoleucine) [u/mg] | % activity relative to the results with 0 mM isoleucine ([2]; 1.0 mM isoleucine) [%] | Threonine Deaminase Specific Activity ([2]; 1.0 mM isoleucine) [u/mg] | % activity relative to the results with 0 mM isoleucine ([2]; 10.0 mM isoleucine) [%] | Threonine Deaminase Specific Activity ([2]; 10.0 mM isoleucine) [u/mg] | Hill Coefficient (n) [2] | Km [2] [mM] | expression (Western blot) and enzymatic activity in transformed calli (soybean callus) | [α-ketobutyrate] (E. coli DH5α cells) [µM] | α-ketobutyrate level relative to cells containing no overexpressed threonine deaminase (E. coli DH5α cells) | Threonine Deaminase Specific Activity (threonine deaminase) [u/mg] |
| --- | --- | --- | --- | --- | --- | --- | --- | --- | --- | --- | --- | --- |
| B1 | 0.053 ± 0.006 |  |  |  |  |  |  |  |  |  |  |  |
| B2 |  | 16.7 | < 2 | 0.3 | < 2 | 0.3 | 1.5 ± 0.2 | 5 ± 1 | can be expressed and maintain enzymatic activity | 41.8 | about a three-fold increase | 4.20 |
| B3 |  | 20.3 | 56 | 11.3 | < 2 | 0.3 | 1.22 ± 0.01 | 3.08 ± 0.03 |  | 579 | greater than 40 times | 0.59 |
